Source: patent US20040175720A1 (NEW YORK UNIVERSITY, published 2004)

Biological target: T1, B42-NIF-1 (full-length), B42 activation domain fusion expressed from pJG4-5 in yeast (human, UniProt Q9H4Z2 1-1342)
T1 construct: also called NIF-1 expressed as a B42-fusion
T1 sequence: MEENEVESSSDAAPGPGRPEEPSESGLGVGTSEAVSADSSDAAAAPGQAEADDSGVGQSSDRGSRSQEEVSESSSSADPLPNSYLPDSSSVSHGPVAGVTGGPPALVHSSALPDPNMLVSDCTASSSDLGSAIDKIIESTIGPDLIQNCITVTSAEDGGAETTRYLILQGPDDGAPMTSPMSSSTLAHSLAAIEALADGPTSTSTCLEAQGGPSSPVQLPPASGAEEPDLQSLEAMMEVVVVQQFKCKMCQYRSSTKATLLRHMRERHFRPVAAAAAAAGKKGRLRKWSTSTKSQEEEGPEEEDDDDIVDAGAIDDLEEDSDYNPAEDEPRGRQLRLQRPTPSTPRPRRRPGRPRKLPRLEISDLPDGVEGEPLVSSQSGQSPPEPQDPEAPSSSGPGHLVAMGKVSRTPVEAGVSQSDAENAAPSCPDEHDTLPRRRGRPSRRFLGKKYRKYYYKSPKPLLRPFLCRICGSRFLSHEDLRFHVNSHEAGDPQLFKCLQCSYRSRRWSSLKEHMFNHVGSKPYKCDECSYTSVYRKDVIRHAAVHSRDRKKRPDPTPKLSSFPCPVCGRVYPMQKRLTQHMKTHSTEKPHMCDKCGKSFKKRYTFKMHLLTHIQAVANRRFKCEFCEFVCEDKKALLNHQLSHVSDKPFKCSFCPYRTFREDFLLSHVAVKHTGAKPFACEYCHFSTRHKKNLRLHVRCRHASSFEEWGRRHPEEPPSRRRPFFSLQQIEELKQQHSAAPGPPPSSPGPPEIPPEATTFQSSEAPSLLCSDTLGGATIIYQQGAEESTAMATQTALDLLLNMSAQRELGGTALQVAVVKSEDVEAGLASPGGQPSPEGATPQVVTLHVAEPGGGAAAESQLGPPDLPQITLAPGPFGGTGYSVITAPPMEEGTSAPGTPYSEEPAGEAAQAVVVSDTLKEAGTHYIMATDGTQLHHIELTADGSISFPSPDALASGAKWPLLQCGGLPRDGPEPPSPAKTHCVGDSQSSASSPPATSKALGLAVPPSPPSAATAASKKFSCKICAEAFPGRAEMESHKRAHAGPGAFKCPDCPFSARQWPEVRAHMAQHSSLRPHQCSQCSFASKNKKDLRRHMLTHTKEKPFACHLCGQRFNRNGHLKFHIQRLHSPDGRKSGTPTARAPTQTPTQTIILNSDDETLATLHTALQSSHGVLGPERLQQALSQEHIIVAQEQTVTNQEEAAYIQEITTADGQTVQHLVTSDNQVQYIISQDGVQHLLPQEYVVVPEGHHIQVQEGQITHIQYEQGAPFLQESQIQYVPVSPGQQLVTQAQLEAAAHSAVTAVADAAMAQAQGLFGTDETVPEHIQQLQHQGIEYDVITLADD
Experiment: yeast two-hybrid, B42-NIF-1 (full-length) against LexA full-length cTRα
Procedure: To examine for this possibility, the interaction of B42-NIF-1 (full-length), conditionally expressed from pJG4-5, was studied with LexA fusions of nuclear receptor LBDs (cTRα, ERa, RXRα, GR, RARα, and PPARα) in yeast, as shown in FIG. 7. In addition, a LexA-fusion of full-length cTRα was also tested against B42-NIF-1 (full-length) and gave similar results as with the cTRα LBD. […] To document that the LexA-LBD fusions were expressed and responded to ligand in yeast, similar studies were carried out with B42-NRC.

B1: LexA-fusion of full-length cTRα (receptor, UniProt P0A7C2 1-202, looked up)
chain: MKALTARQQEVFDLIRDHISQTGMPPTRAEIAQRLGFRSPNAAEEHLKALARKGVIEIVSGASRGIRLLQEEEEGLPLVGRVAAGEPLLAQQHIEGHYQVDPSLFKPNADFLLRVSGMSMKDIGIMDGDLLAVHKTQDVRNGQVVVARIDDEVTVKRLKKQGNKVELLPENSEFKPIVVDLRQQSFTIEGLAVGVIRNGDWLMEQKPSTLDPLSEPEDTRWLDGKRKRKSSQCLVKSSMSGYIPSYLDKDEQCVVCGDKATGYHYRCITCEGCKGFFRRTIQKNLHPTYSCKYDGCCVIDKITRNQCQLCRFKKCISVGMAMDLVLDDSKRVAKRKLIEENRERRRKEEMIKSLQHRPSPSAEEWELIHVVTEAHRSTNAQGSHWKQKRKFLPEDIGQSPMASMPDGDKVDLEAFSEFTKIITPAITRVVDFAKKLPMFSELPCEDQIILLKGCCMEIMSLRAAVRYDPESETLTLSGEMAVKREQLKNGGLGVVSDAIFDLGKSLSAFNLDDTEVALLQAVLLMSSDRTGLICVDKIEKCQETYLLAFEHYINYRKHNIPHFWPKLLMKVTDLRMIGACHASRFLHMKVECPTELFPPLFLEVFEDQEV
notes: domain: LexA DBD;mature
- binding result: no binding
